# B1: BCP-78 (bispecific antibody)
# chain 1: EVQLVESGGGVVQPGRSLRLSCAASGRTITTITMGWFRQAPGKGREFVASHSWTDNNPYYADSVKGRFTISRDNAKNTLYLQMNSLRPEDTAVYYCAATARRSFVGRQWYTEARQYDYWGQGTLVTVSSEPKSSDKTHTSPPSPQVQLVESGGGVVQPGRSLRLDCKASGITFSNSGMHWVRQAPGKGLEWVAVIWYDGSKRYYADSVKGRFTISRDNSKNTLFLQMNSLRAEDTAVYYCATNDDYWGQGTLVTVSSASTKGPSVFPLAPCSRSTSESTAALGCLVKDYFPEPVTVSWNSGALTSGVHTFPAVLQSSGLYSLSSVVTVPSSSLGTKTYTCNVDHKPSNTKVDKRVESKYGPPCPPCPAPEFLGGPSVFLFPPKPKDTLMISRTPEVTCVVVDVSQEDPEVQFNWYVDGVEVHNAKTKPREEQFNSTYRVVSVLTVLHQDWLNGKEYKCKVSNKGLPSSIEKTISKAKGQPREPQVYTLPPSQEEMTKNQVSLTCLVKGFYPSDIAVEWESNGQPENNYKTTPPVLDSDGSFFLYSRLVDKSRWQEGNVFSCSVMHEALHNHYTQKSLSLSLGK
# chain 2: not shown
# B2: BCP-73 (bispecific antibody)
# chain 1: not shown
# chain 2: EIVLTQSPATLSLSPGERATLSCRASKGVSTSGYSYLHWYQQKPGQAPRLLIYLASYLESGVPARFSGSGSGTDFTLTISSLEPEDFAVYYCQHSRDLPLTFGGGTKVEIKRTVAAPSVFIFPPSDEQLKSGTASVVCLLNNFYPREAKVQWKVDNALQSGNSQESVTEQDSKDSTYSLSSTLTLSKADYEKHKVYACEVTHQGLSSPVTKSFNRGEC
# B3: BCP-75 (bispecific antibody)
# chain 1: not shown
# chain 2: B2 chain 2
# B4: BCP-74 (bispecific antibody)
# chain 1: not shown
# chain 2: B2 chain 2
# Target: human PD-1 expressed on CHO cells (human, UniProt Q15116 25-288)
# Experiment: cell-based or functional assay
# human PD-1 expressed on CHO cells, sequence (Q15116 25-288): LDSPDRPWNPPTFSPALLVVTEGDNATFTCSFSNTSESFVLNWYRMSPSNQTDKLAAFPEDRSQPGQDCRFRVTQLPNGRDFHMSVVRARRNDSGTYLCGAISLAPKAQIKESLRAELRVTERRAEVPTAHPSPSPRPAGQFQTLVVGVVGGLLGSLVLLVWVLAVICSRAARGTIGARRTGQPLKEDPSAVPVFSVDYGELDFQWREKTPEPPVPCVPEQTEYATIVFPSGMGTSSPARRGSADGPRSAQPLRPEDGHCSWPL
row,Binder,"EC50 (nM), NFAT luciferase, PD-1/NFAT Reporter-Jurkat cells with CHO-K1 expressing human PD-L1 and TCR activator [nM]"
1,B1,8.9
2,B2,1.6
3,B3,5.5
4,B4,4.3

# Target: CTLA-4-Fc (GenScript, Z03373-50) (UniProt P16410 36-161)
# Experiment: cell-based or functional assay
# CTLA-4-Fc (GenScript, Z03373-50), sequence (P16410 36-161 limits assumed, one chain of several): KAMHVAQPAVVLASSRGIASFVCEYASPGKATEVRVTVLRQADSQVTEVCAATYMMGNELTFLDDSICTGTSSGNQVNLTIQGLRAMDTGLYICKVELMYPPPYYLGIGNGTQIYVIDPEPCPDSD
row,Binder,"EC50 (nM), IL-2 secretion, CD4+ T cells with CHO-K1/human CD80 and CTLA-4-Fc [nM]"
1,B1,8.4
2,B2,12.1
3,B3,12.1
4,B4,14.3
